From PMC5727386, “Structural and functional dissection of the DH and PH domains of oncogenic Bcr-Abl tyrosine kinase” (Nature Communications, 2017) come the findings set out here.

Assay [1] concerns the target T1, biotinylated Bcr-Abl DH-PH tandem domain (Avi-tag) (UniProt P11274 487-893, biotin on the Avi-tag).
T1 construct: Bcr part of Bcr-Abl p210, DH-PH tandem domain, residues 487-893; Cloned in pHBT1, which for the monobodies is said to give an N-terminal His- and Avi-tag followed by a TEV site; also called biotinylated DH-PH domain; source: E. coli BL21(DE3), co-expressed with BirA and 50 uM biotin, purified; not shown: Avi-tag, N-terminal, kept
T1 sequence (looked up): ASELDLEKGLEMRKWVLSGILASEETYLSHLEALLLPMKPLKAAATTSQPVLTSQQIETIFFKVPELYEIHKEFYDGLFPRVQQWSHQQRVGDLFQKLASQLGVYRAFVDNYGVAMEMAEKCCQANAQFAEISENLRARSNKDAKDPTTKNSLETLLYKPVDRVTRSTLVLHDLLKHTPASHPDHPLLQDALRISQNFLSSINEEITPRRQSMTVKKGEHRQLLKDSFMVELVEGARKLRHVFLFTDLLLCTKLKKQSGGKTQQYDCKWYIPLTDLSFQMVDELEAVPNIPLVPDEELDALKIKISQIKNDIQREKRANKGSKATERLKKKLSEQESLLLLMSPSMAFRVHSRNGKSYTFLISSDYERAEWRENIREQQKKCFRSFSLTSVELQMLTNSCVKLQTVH
Kind of assay: flow cytometry on cells; monobody displayed on yeast surface; biotinylated target 10 nM to 1 uM in TBS with 0.1% BSA, 30 min at RT; streptavidin-DyLight650; 1:1 binding model; apparent Kd. Particulars: one partner purified.

In assay [2] the target is T2, Bcr-Abl DH domain (residues 487-702).
T2 construct: Bcr part of Bcr-Abl p210, Dbl-homology domain, residues 487-702; 15N-labelled for the NMR experiments; also called Bcr DH; source: E. coli Rosetta(DE3), purified (Ni-NTA, TEV cleavage, reverse Ni, SEC); not shown: His-tag, N-terminal, cleaved
T2 chain: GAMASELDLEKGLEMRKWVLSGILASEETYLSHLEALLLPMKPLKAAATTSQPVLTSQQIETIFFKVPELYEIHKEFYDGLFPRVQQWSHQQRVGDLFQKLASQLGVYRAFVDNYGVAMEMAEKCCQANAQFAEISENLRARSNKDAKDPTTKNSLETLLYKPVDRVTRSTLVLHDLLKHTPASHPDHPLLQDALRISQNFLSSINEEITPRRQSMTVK
Kind of assay: ITC; monobody (200 uM stock) titrated to the DH domain (20 uM) at 25 °C; 25 mM HEPES pH 7.5, 150 mM NaCl, 0.5 mM TCEP; 1:1 binding model. Particulars: both partners purified. In general terms: In ITC the heat of successive injections is recorded.

For assay [3], the target named is T3, biotinylated Bcr-Abl PH domain (Avi-tag) (UniProt P11274 704-893, biotin on the Avi-tag).
T3 construct: Bcr part of Bcr-Abl p210, Pleckstrin-homology domain, residues 704-893; Cloned in pHBT1; the limits are those stated for the PH domain construct; also called biotinylated PH; source: E. coli BL21(DE3), co-expressed with BirA and 50 uM biotin, purified; not shown: Avi-tag, N-terminal, kept
T3 sequence (looked up): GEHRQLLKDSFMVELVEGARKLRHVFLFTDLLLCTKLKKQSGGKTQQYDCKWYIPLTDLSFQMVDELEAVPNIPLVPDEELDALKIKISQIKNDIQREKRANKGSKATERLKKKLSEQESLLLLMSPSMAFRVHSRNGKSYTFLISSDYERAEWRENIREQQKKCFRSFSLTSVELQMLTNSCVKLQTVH
Kind of assay: flow cytometry on cells; monobody displayed on yeast surface; biotinylated target 10 nM to 1 uM in TBS with 0.1% BSA, 30 min at RT; streptavidin-DyLight650; 1:1 binding model; apparent Kd. The note with it: one partner purified. Background: A flow cytometer gives signals particle by particle.

B1: monobody Mb(Bcr-DH_3), displayed on yeast surface (designed binder)
chain: VSSVPTKLEVVAATPTSLLISWDAPAVTVDLYVITYGETGGNSPVQAFEVPGSKSTATISGLKPGVDYTITVYAGSETYRGYWSPISINYRT
notes: monobody on the fibronectin type III scaffold, side-and-loop library
On to B1, for which the Kd in assay [1] amounted to 18 ± 5 nM.

B2: monobody Mb(Bcr-DH_3), purified (designed binder)
chain: VSSVPTKLEVVAATPTSLLISWDAPAVTVDLYVITYGETGGNSPVQAFEVPGSKSTATISGLKPGVDYTITVYAGSETYRGYWSPISINYRT
notes: monobody on the fibronectin type III scaffold, side-and-loop library; also called Mb(DH_3); source: E. coli BL21(DE3), purified; not shown: His-tag, N-terminal, cleaved; Avi-tag, N-terminal, cleaved
For orientation: stoichiometry N means the number of molecules, sites or subunits per partner or assembly. As to B2, in assay [2], the Kd is 2.1 nM and the “stoichiometry N” value turned out to be 0.78.

B3: monobody Mb(Bcr-PH_3), displayed on yeast surface (designed binder)
chain: VSSVPTKLEVVAATPTSLLISWDAPAVTVVFYVITYGETGGNSPVQEFTVPGSKSTATISGLKPGVDYTITVYAEYYGYSGWQSPISINYRT
notes: as for B1
Turning to B3, in assay [3], the Kd was determined as 63 ± 12 nM.

B4: monobody Mb(Bcr-PH_2), displayed on yeast surface (designed binder)
chain: VSSVPTKLEVVAATPTSLLISWDAPAVTVVFYVITYGETGGNSPVQEFTVPGSKSTATISGLKPGVDYTITVYAEYYGYTSSPISINYRT
notes: as for B1
B4: in assay [3], the Kd was found to be 46 ± 10 nM.

B5: monobody Mb(Bcr-DH_4), displayed on yeast surface (designed binder)
chain: VSSVPTKLEVVAATPTSLLISWDAPAVTVDLYVITYGETGGNSPVQEFEVPGSKSTATISGLKPGVDYTITVYAGSYAYEYYWGPSPISINYRT
notes: as for B1
B5: in assay [1], the Kd was 20 ± 7 nM.

B6: monobody Mb(Bcr-DH_4), purified (designed binder)
chain: VSSVPTKLEVVAATPTSLLISWDAPAVTVDLYVITYGETGGNSPVQEFEVPGSKSTATISGLKPGVDYTITVYAGSYAYEYYWGPSPISINYRT
notes: monobody on the fibronectin type III scaffold, side-and-loop library; also called Mb(DH_4); S10; source: E. coli BL21(DE3), purified; not shown: His-tag, N-terminal, cleaved; Avi-tag, N-terminal, cleaved
Regarding B6, in assay [2], the Kd stood at 14.5 ± 8.6 nM and the “stoichiometry N” value came to 0.94.
